± gives the standard deviation of the averaged measurements.
The sequences below were run on ATP (assay: switch fluorescence ratio, 500 uM ATP over buffer (Cy3 cluster intensity, sum of 5 cycles each) (fold (ratio)); higher = stronger signal-on switching upon ATP binding; sequences stand for … in TCGTCGGCAGCGTCAGATGTGTATAAGAGACAGTTTTTTTTTTTTTTTTTTTTTTTTT…TC). Settings: aptamer strand: ATP DNA aptamer (quencher-CACCTGGGGGAGTATTGCGGAGGAAGG + anchor), 100 nM annealed; ATP concentration: 500 uM.
Procedure, shortened: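 The quencher-labelled ATP aptamer, at 100 nM, was annealed to Cy3-labelled switching-strand clusters on a modified Illumina MiSeq flow-cell. The clusters were imaged in selection buffer, then after 15 min with 500 uM ATP at 22 °C, and this buffer/ATP cycle ran five times with NaOH stripping and re-annealing between runs. Per-cluster fluorescence ratios, summed target-cycle over summed buffer-cycle Cy3 intensity, were averaged per switch-domain sequence. Clusters outside 100-1000 RFU were excluded.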
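Note: ATP exposure 15 min at 22 °C before imaging.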

| Sequence | switch fluorescence ratio |
| --- | --- |
| CTGGGTCGGG | 0.992 ± 0.0079 |
| GATATTGGTT | 1.02 ± 0.025 |
| ATAAAGAATG | 1.01 ± 0.05 |
| CATGCTGTA | 0.981 ± 0.025 |
| AGATAGTATT | 0.986 ± 0.02 |
| TATAAGAAGC | 0.993 ± 0.021 |
| ATATTTTTTT | 1 ± 0.03 |
| TGGAAATTGT | 0.9944 ± 0.0077 |
| GATGGGGTCC | 0.949 ± 0.015 |
| TATGCTAAAA | 0.965 ± 0.038 |
| GTTGTTGGAA | 0.963 ± 0.049 |
| CCTGGTCGAC | 0.986 ± 0.015 |
| GCCAGGGGGT | 1.08 ± 0.12 |
| CAGCTTATCG | 0.995 ± 0.014 |
| CATTTTTGGG | 0.98798 ± 0.00089 |
| ACACTCATGG | 1.03 ± 0.068 |
| GTTTAAACTT | 0.996 ± 0.039 |
| TGTAAAAAT | 1.01 ± 0.042 |
| ACATCGACTG | 1.02 ± 0.048 |
| CGGGGGGCTC | 0.99 ± 0.01 |
| CATGAATTTT | 0.982 ± 0.047 |
| GCCCTGAGCG | 1.011 ± 0.0066 |
| TGTTCTAGGG | 1.01 ± 0.013 |
| TTAGGAAGTT | 1 ± 0.033 |
| GGGGGCTGCC | 0.986 ± 0.011 |

| Sequence | switch fluorescence ratio |
| --- | --- |
| AAAGCAATGG | 2.51 ± 2 |
| CGATAATTTG | 0.994 ± 0.015 |
| CTTGTGCTTG | 1.0058 ± 0.00065 |
| TTTCATGTGG | 0.995 ± 0.044 |
| GGATTTTTTC | 1.02 ± 0.037 |
| AATTTTTGTG | 0.988 ± 0.022 |
| AGAGGGGGCG | 1.01 ± 0.039 |
| GGGAGATATT | 0.985 ± 0.0099 |
| CTATGTAAAT | 1.01 ± 0.031 |
| ATGGTAGGGG | 0.986 ± 0.014 |
| TAAGCTTTGT | 0.9902 ± 0.0025 |
| ATGTGTTACC | 1.01 ± 0.021 |
| ATAAAAATGG | 1.004 ± 0.0075 |
| CGGTTAATTC | 1.012 ± 0.0028 |
| GAAGGGAGTG | 0.986 ± 0.084 |
| CGGAAGGGAG | 0.996 ± 0.015 |
| GGGTCTTTTC | 1.11 ± 0.11 |
| GTTTAAAGTG | 1 ± 0.026 |
| GAGCTACTGA | 1.011 ± 0.0085 |
| TCTCCTGGGA | 1.03 ± 0.018 |
| CTGGTTACAC | 1.03 ± 0.033 |
| TTTAAATTG | 1 ± 0.05 |
| TACGTGCCTC | 0.99 ± 0.02 |
| TATCCACCGT | 1.077 ± 0.0031 |
| TTCGAATTGT | 0.976 ± 0.037 |

| Sequence | switch fluorescence ratio |
| --- | --- |
| TTTCTGGGGT | 1.01 ± 0.054 |
| AGTGGGAACC | 0.998 ± 0.025 |
| GTATGGCGGG | 1.008 ± 0.0032 |
| AGTCTAGGCG | 0.985 ± 0.011 |
| ACTCTTTATA | 1.04 ± 0.035 |
| CTTATGAGGG | 0.99 ± 0.025 |
| AATATTTTCC | 1.04 ± 0.052 |
| TCCTTTAACG | 1.031 ± 0.0014 |
| GATAATTTGT | 0.973 ± 0.065 |
| GAGTAGAGGG | 0.954 ± 0.014 |
| TTTCAGGGTC | 1.15 ± 0.19 |
| CTATGTTATT | 1.01 ± 0.038 |
| AGGAGGCGGG | 0.99 ± 0.035 |
| CCGGGTATCC | 1.19 ± 0.18 |
| TTGTGGCTGG | 0.96 ± 0.035 |
| AAAGTGCCCG | 0.979 ± 0.022 |
| GATTTCCCCG | 1.18 ± 0.028 |
| TACCCGGGTT | 1.11 ± 0.2 |
| GGAATAAAGT | 0.996 ± 0.021 |
| AGGGGGGCTC | 0.98 ± 0.04 |
| GCGTTTCGGA | 1 ± 0.02 |
| TTGTGAGGGA | 0.9946 ± 0.0034 |
| CCGGCTGAGG | 1.03 ± 0.017 |
| GACGGGTGGC | 1.11 ± 0.02 |
| TCTATACCAC | 1.06 ± 0.014 |

| Sequence | switch fluorescence ratio |
| --- | --- |
| CGGGTCTAAA | 0.9966 ± 0.0027 |
| GGGTAGCTCG | 0.987 ± 0.031 |
| TGTCGACTTG | 0.9716 ± 0.0066 |
| GGAATCAGGG | 0.99 ± 0.07 |
| TCTTGCTTC | 1.0084 ± 0.00091 |
| TCGTAGGAGC | 1.03 ± 0.02 |
| TTTTTCTGGG | 0.977 ± 0.0099 |
| GATATATGGT | 0.9833 ± 0.0077 |
| TCGGTCAGTA | 1.002 ± 0.0036 |
| CAGTGGATAC | 1.2218 ± 0.00027 |
| CACTTGTTTT | 1.01 ± 0.011 |
| GTTTATAAAC | 0.973 ± 0.064 |
| CGTTCGATGC | 1.21 ± 0.042 |
| ACGTGTCTTG | 1.01 ± 0.013 |
| CTCAAAAGA | 1.11 ± 0.077 |
| TCGTCCTTTT | 0.976 ± 0.03 |
| CGGGGGGTTT | 1.01 ± 0.025 |
| CGGTTTTTAG | 1.01 ± 0.044 |
| CAATTGGAAC | 0.99578 ± 8.3e-05 |
| GAGAAATTGG | 1 ± 0.022 |
| CATATGATTT | 0.993 ± 0.019 |
| TTGGCAGGCC | 1.017 ± 0.0074 |
| GTGCGCAATT | 2.02 ± 0.082 |
| TGTGTATGAG | 0.986 ± 0.036 |
| GTTGGGATGG | 0.991 ± 0.015 |

| Sequence | switch fluorescence ratio |
| --- | --- |
| TTGCTGGAAT | 1.06 ± 0.095 |
| CTCAATCGAA | 1.03 ± 0.026 |
| TATATTTTAG | 1.03 ± 0.021 |
| TCGGGTTCTC | 0.967 ± 0.0091 |
| CGTTAGTCGT | 0.981 ± 0.039 |
| TCATCTACTT | 1.02 ± 0.041 |
| CTGGTTAGGC | 1.01 ± 0.034 |
| AAAAGGTAAA | 1.02 ± 0.021 |
| TTTTTCATTT | 1.01 ± 0.023 |
| ATATTGGGTA | 0.997 ± 0.022 |
| TCAGGGGCTT | 1.16 ± 0.28 |
| TTTATTGA | 0.989 ± 0.013 |
| ATTTTTTCAA | 0.981 ± 0.015 |
| TCTTGGCACA | 1.036 ± 0.0061 |
| GATGATGCTG | 1.03 ± 0.017 |
| TGAGAGTTTT | 0.978 ± 0.036 |
| TAAGGGTTTT | 1 ± 0.036 |
| GTTTGGTGTG | 0.975 ± 0.033 |
| CTCATATAGC | 0.999 ± 0.019 |
| CGGGTGGGAA | 0.9995 ± 0.0026 |
| AGTCTAACTC | 1.02 ± 0.019 |
| CACGCGTGGA | 1.003 ± 0.0055 |
| TCACTTTGCG | 0.984 ± 0.032 |
| TTATTAGTGC | 1.03 ± 0.1 |
| AACCTGGGGT | 1.02 ± 0.0073 |

| Sequence | switch fluorescence ratio |
| --- | --- |
| AGATTGCCGT | 1.01 ± 0.068 |
| GGGGGACCGG | 1.01 ± 0.072 |
| ATCAGTTTTC | 0.985 ± 0.0013 |
| GTGGTGGGTT | 0.975 ± 0.018 |
| TAATTATAGC | 1.05 ± 0.049 |
| TGTTTTTTGT | 0.992 ± 0.034 |
| TGCAATTCGT | 1.13 ± 0.033 |
| GATTTTGTCT | 0.9923 ± 0.0099 |
| ATGATGTGGT | 0.992 ± 0.022 |
| GCGGGTTACT | 1.053 ± 0.0028 |
| GGGTCTTCGC | 0.991 ± 0.024 |
| TGAAGGGTTG | 1.01 ± 0.026 |
| CATAGTTGCG | 1.02 ± 0.04 |
| GCAGGCAACT | 0.995 ± 0.018 |
| TATACGTGGG | 1.03 ± 0.046 |
| AATTTACTGT | 1.01 ± 0.023 |
| ATCAAGCCAA | 1.005 ± 0.0018 |
| CCGAGCGCTT | 4.69 ± 1.4 |
| TTTACGTCCA | 1.1 ± 0.047 |
| TTGCAATTCG | 3.05 ± 2.5 |
| CAGGGCGCCT | 1.012 ± 0.002 |
| TTTTCGTGGC | 0.989 ± 0.1 |
| GGGGTGATCA | 1.05 ± 0.064 |
| TTTAAATAGC | 0.9742 ± 0.00053 |
| GACAGTTTGT | 1.01 ± 0.033 |

| Sequence | switch fluorescence ratio |
| --- | --- |
| GGTGTTTTTT | 0.99 ± 0.011 |
| CAGGACTCCG | 0.98 ± 0.046 |
| GAGTGCTATT | 0.981 ± 0.013 |
| AAAGGTTGGG | 0.992 ± 0.044 |
| ATAGATGTCT | 0.992 ± 0.019 |
| CAGGACCCGT | 0.9965 ± 0.0019 |
| CGATATCCAC | 1.07 ± 0.013 |
| TTTATACTGT | 1.03 ± 0.024 |
| GCAAATGATG | 1.01 ± 0.012 |
| GCCCAAGGGG | 1.05 ± 0.091 |
| TTTCGACTTT | 1 ± 0.038 |
| ATCTTTAGTA | 1 ± 0.014 |
| ATATCTAGCC | 0.9611 ± 0.0042 |
| AGTCGGAACG | 0.963 ± 0.015 |
| GGGTAACGAG | 1.006 ± 0.0078 |
| CAGCAGGGGG | 1.07 ± 0.068 |
| CTGGTCTATT | 0.968 ± 0.017 |
| TTCGCGGCTA | 1.07 ± 0.016 |
| TAGTTAGGCA | 0.9819 ± 0.0053 |
| GACCAAATTT | 1.02 ± 0.064 |
| CCGGGGGGGA | 1.13 ± 0.23 |
| TGCTTCTAAC | 1.006 ± 0.0082 |
| CGCGATCTGT | 1.18 ± 0.046 |
| TATGTGGGCT | 0.987 ± 0.021 |
| CGACGTGGGA | 1.042 ± 0.0055 |

| Sequence | switch fluorescence ratio |
| --- | --- |
| GCCATGACGG | 0.988 ± 0.027 |
| GTTGCGACGG | 1 ± 0.028 |
| AGTGTCCAGT | 1 ± 0.028 |
| TTATAAGTTT | 1.03 ± 0.078 |
| TGGGTAATCA | 0.981 ± 0.036 |
| TGATGTTATA | 0.968 ± 0.022 |
| TGCCGGATTT | 1.02 ± 0.018 |
| CATTTTGTTT | 0.998 ± 0.054 |
| TCTGTAAGAA | 1.03 ± 0.041 |
| AAATTTGCCA | 0.9566 ± 0.0066 |
| AGAGTCAGCA | 1.02 ± 0.021 |
| TACACGGGGT | 1.05 ± 0.018 |
| CTAGTACGGG | 1.04 ± 0.031 |
| GGTTAAGCGG | 0.972 ± 0.021 |
| TGCTGTTGTA | 0.998 ± 0.033 |
| TAGGGAAACT | 1.21 ± 0.26 |
| AATTTGAGAA | 0.998 ± 0.029 |
| ATCTATGATA | 0.954 ± 0.011 |
| ATAGCTTGAG | 1.01 ± 0.04 |
| CTCGGTTGAC | 1.07 ± 0.015 |
| ATCAGCAACG | 1.01 ± 0.026 |
| TCATCGGCTC | 1.32 ± 0.11 |
| ACAGACAATG | 1.02 ± 0.045 |
| ACCGCATCGT | 1.21 ± 0.027 |
| ACAGGGGTGG | 1.02 ± 0.021 |

Source: the supplement of paper PMC10126150
